Publication PMC11445458
Values joined by “and” are separate entries in the source; they are usually repeats but may differ in a detail not shown here. Equal entries are not always repeated.

Columns and labels:
[1] = biological target: adaptor protein (gp41) of bacteriophage JBD30 (bacteriophage JBD30 (Casadabanvirus JBD30)); assay: cryo-EM structure; single-particle reconstructions (icosahedral, C5, C12, C6, C3, asymmetric, localized) of purified JBD30 virions and empty particles in phage buffer (10 mM MgSO4, 10 mM NaCl, 50 mM Tris pH 8); native assembly
[2] = biological target: baseplate hub protein (gp53) of bacteriophage JBD30 (bacteriophage JBD30 (Casadabanvirus JBD30)); assay: as above
[3] = biological target: distal tail protein (gp49) of bacteriophage JBD30 (bacteriophage JBD30 (Casadabanvirus JBD30)); assay: as above
[4] = biological target: major capsid protein (gp38) of bacteriophage JBD30 (bacteriophage JBD30 (Casadabanvirus JBD30)); assay: cryo-EM structure; single-particle reconstruction of JBD30 procapsids found in the purified phage sample (icosahedral, C5, localized C12 portal)
[5] = biological target: major capsid protein (gp38) of bacteriophage JBD30 (bacteriophage JBD30 (Casadabanvirus JBD30)); assay: cryo-EM structure; single-particle reconstructions (icosahedral, C5, C12, C6, C3, asymmetric, localized) of purified JBD30 virions and empty particles in phage buffer (10 mM MgSO4, 10 mM NaCl, 50 mM Tris pH 8); native assembly
[6] = biological target: major tail protein (gp44) of bacteriophage JBD30 (bacteriophage JBD30 (Casadabanvirus JBD30)); assay: as above
[7] = biological target: minor capsid protein (gp39) of bacteriophage JBD30 (bacteriophage JBD30 (Casadabanvirus JBD30)); assay: as above
[8] = biological target: portal protein (gp32) of bacteriophage JBD30 (bacteriophage JBD30 (Casadabanvirus JBD30)); assay: cryo-EM structure; single-particle reconstruction of JBD30 procapsids found in the purified phage sample (icosahedral, C5, localized C12 portal)
[9] = biological target: portal protein (gp32) of bacteriophage JBD30 (bacteriophage JBD30 (Casadabanvirus JBD30)); assay: cryo-EM structure; single-particle reconstructions (icosahedral, C5, C12, C6, C3, asymmetric, localized) of purified JBD30 virions and empty particles in phage buffer (10 mM MgSO4, 10 mM NaCl, 50 mM Tris pH 8); native assembly
[10] = biological target: receptor binding protein (gp54) of bacteriophage JBD30 (bacteriophage JBD30 (Casadabanvirus JBD30)); assay: as above
[11] = biological target: stopper protein (gp42) of bacteriophage JBD30 (bacteriophage JBD30 (Casadabanvirus JBD30)); assay: as above
[12] = biological target: tape measure protein (gp46) of bacteriophage JBD30 (bacteriophage JBD30 (Casadabanvirus JBD30)); assay: as above

Substance: adaptor protein (gp41) of bacteriophage JBD30 (natural protein)
- stoichiometry N [1]: 12

Substance: baseplate hub protein (gp53) of bacteriophage JBD30 (natural protein)
- stoichiometry N [2]: 3

Substance: distal tail protein (gp49) of bacteriophage JBD30 (natural protein)
- stoichiometry N [3]: 3

Substance: major capsid protein (gp38) of bacteriophage JBD30 (natural protein)
- stoichiometry N [4]: 5 and 6
- stoichiometry N [5]: 5 and 6

Substance: major tail protein (gp44) of bacteriophage JBD30 (natural protein)
- stoichiometry N [6]: 6

Substance: minor capsid protein (gp39) of bacteriophage JBD30 (natural protein)
- stoichiometry N [7]: 3

Substance: portal protein (gp32) of bacteriophage JBD30 (natural protein)
- stoichiometry N [8]: 12
- stoichiometry N [9]: 12

Substance: receptor binding protein (gp54) of bacteriophage JBD30 (natural protein)
- stoichiometry N [10]: 3

Substance: stopper protein (gp42) of bacteriophage JBD30 (natural protein)
- stoichiometry N [11]: 6

Substance: tape measure protein (gp46) of bacteriophage JBD30 (natural protein)
- stoichiometry N [12]: 3
